The test deals with SARS-CoV-2 S Foldon his (prefusion stabilized spike ectodomain) (SARS-CoV-2 (Wuhan-Hu-1) | bacteriophage T4) (UniProt P0DTC2). The experiment in a line: native gel or EMSA. On the technique in general: A gel shift assay detects complexes by their altered migration in electrophoresis.

For orientation: stoichiometry N means a count of units in the complex or per binding partner.

Take “SARS-CoV-2 S Foldon his (prefusion stabilized spike ectodomain) (from UniProt P0DTC2 14-1138) (domain or fragment)”: the stoichiometry N turned out to be 3.

These data come from paper PMC11068555.
